Results: the DeepSol protein solubility set

Test: soluble on expression in E. coli; label from the status in PepcDB or PDB records

| Sequence | soluble on expression in E. coli |
| --- | --- |
| MEPIDIARLEEAVVSFYRSNSQNQAITHEWLTDAEASPQAWQFSWQLMQLGKSQEVQFFGAITLHSKLMKHWHEVPPENREELKQKILESIVRFAGGPKIVLNRLCISLGAYIVHMLGEWPGAIEEVINTFQNQRMPNVSADVQLWIMLEVLTAIPEEAQVIHTSVKRVVLRAEIAKRVQLVIHTVERYLKLQMNRVWDAEAYSNMNRAVKCVGTWIKNIGYTIEGCVTITAVLLEVVHKCYWPCIHAGDGCMTADENELAESCLKTMVNIIIQPDCHNYPKTAFVLIKMFLDSLSEITKTEWKRENDNEDIIVHIYMLFVSSVERHSTLLLSGITSADPELSILVHRIVQEILHCTDKPGIYPVEESCSTMALAFWYMLQDEVFAMSNDEQKHKCWEYIKPLYAHLTRILVRKSEQPDEKSLAKWSSDDLECFRCYRQDISDTFMYCYDVLNDYILEILAAMLDEAIADLQRHPTHWTKLEACIYSFQSVAEHFGGEEKRQIPRLMRVLAEIPYEKLNVKLLGTALETMGSYCNWLMENPAYIPPAINLLVRGLNSSMSAQATLGLKELCRDCQLQLKPYADPLLNACHASLNTGRMKNSDSVRLMFSIGKLMSLLRPEEIPKYLDIIVSPCFEELQAICQADSKTPAARIRTIFRLNMISTLFSSLNTDVDEQATDQPIVQPVLLVMQRTMPIFKRIAEMWVEEIDVLEAACSAMKHAITNLRSSFQPMLQDLCLFIVASFQTRCCAPTLEISKTAIVMFFKDEGCKPLMQQLLREFIQHSFKLFESTPEQNFSNISDTMETFFGCLTQIIKKIPQVLEDKTLAYDRLVFYAQRGMTLPESGAIRNSIQFLTHFVMQSRNHAHVTEVVLATGEQTLYTAMMCVGYLTPRSQVDKFADILLAMNRKYAAEMAVWMKSLMSTPNFPTQLITDADKTRYTALIIKEKVNKRLLQQHLSEMAMKTRGLTEKFQ | soluble |
| MSLSGCASPASASGASALSVWDLFQGGDGMLMDDMIEAVSKGAGGAEGFEIDRTILDWGPSYYTKLAMSAAGGRASDVAAMHLSRLAGYAPGGLVDAFDLDLLAEYGVTEKDFTPAVWARTRHEGTVYAIPLDVHPFIVFYDKKAAERAGLLDAAGELAPMGSPEALLEAGKALAEATGESGILFGHVTDTAQNWRLFAGLYAQTGAAFDLPDGGPPEIDVDAAVRVVTLMTRLFDGKTNPSNLDYNGALAAFSSGRGGMAMLGEWELPTLKKSGMELGAAPFPQVFEKPAVYTDSHSFVLPHQDSPDPARRREAHRYVAQILAQSLTWASAGHIPAYQPVLAEPEYAALDPQSSYADAAEVAVLDPPNWFAGAGSNFQNRMCQPLQSALLGDTTPEKAVRQMVREADTLLRQPNPVAEGHHHHHH | soluble |
| MSLKMTFCRAVCLAAAFLLMGCDEAPETTTASPAAQVLEGKTMGTLWRVSVVGIDAKRAAELQTKIQTQLDADDWLLSTYKNDSALMRFNHSRSLAPWPVSEAMADIVTSALRIGAKTDGAMDITVGPLVNLWGFGPDRQPLHIPTPAQIDAAKAKTGLQHLQVIDRAGHQFLQKDLPDLYVDLSTVGEGYAADHLARLMEQEGIARYLVSVGGALSSRGMNAQGQPWRVAIQKPTDRENAVQAIVDINGHGISTSGSYRNYYELDGKRVSHVIDPQTGRPIEHNLVSVTVIAPTALEADGWDTGLMVLGTQKAQEVVRREGLAVFMIMKEGEGFKTWMSPQFKTFLVSDKNEGGSHHHHHH | soluble |
| SLKRIDWNIQYLSLPPVIKHCKKCGKKTEFICSGMFRINAQRKYLDVWLIYKCSNCNSTWNMTIYTRVKPKSIEPKLLEAFHNNDKELAERYAVNLELIRKNGVELGYTKYKIIGEDINFRIPVELHIKSTYPSQLKVAALIREKLNLSQSSFESLITKGLIRGDTEINLKKCRLRTEVIVIIDSLDWSEVAFALAL | soluble |
| MTTTTLTVPFRFDVVGSLLRPASLKKAHEQLAAGTITRDQELEIQHTEIKRVVAEQVKLGLKAVTDGEFSRSWWHLDFLWGLTGVGKYDYHQSYKFKGDHTRTDNAELIGKVAYNPDHPFFAAFEYLQSIVPAGVLAKQTIPSPTMLFRDNRSDNWTKFYDSWDAYLNDLAQAYHDTIQHFYDLGCRYIQLDDTTWAFLISKLNDPEADHAAYTKWATDAVTVINAALADLPSDLTVTTHICRGNFKSTYLFSGSYDVVAPYLGQLNYDGLFLEYDNERAGGFEALDQIWNHDDHKRIVLGLVTSKFPELEKTTVIKERVQAATTKVPLRNLALSTQCGFASTEEGNQLTEAQQWAKLALVIGTAKEVWSEALEHHHHHH | not soluble |
| SPGFSVGVIGDMFLLPNLNLRLLPTLHFGDKQFVFSDGEKPVASFSVRSNYLEFPLLLKYGSRRLNNMRPYLIGGPYWTMELGRKKGLEIYTKANDYGVQIGLGCDFYLPFFKLCPELRFSFGFPDVITHERPDLLDDYKLIYTQSISRARTRMIMLTFNFE | not soluble |
| MAFIESWAKRTWLVPPQMQLYVDYKIKVTEILTNYTSIEEIHSYSIDESFLDITESLNFFYPDIRNRYEQMNLITLDLQREILDKLGLYVTVGMGDNPLLAKLAMDNYAKHNQNMRALIRYLEHHHHHH | not soluble |
| MTIKNVICDIDGVLMHDNVAVPGAAEFLHGIMDKGLPLVLLTNYPSQTGQDLANRFATAGVDVPDSVFYTSAMATADFLRRQEGKKAYVVGEGALIHELYKAGFTITDVNPDFVIVGETRSYNWDMMHKAAYFVANGARFIATNPDTHGRGFYPACGALCAGIEKISGRKPFYVGKPSPWIIRAALNKMQAHSEETVIVGDNLRTDILAGFQAGLETILVLSGVSSLDDIDSMPFRPSWIYPSVAEIDVILEHHHHHH | not soluble |
| MSVVAAVDCGTNSIRLLISEQTPTGLREITRQMTIIRLGEGVDATGKIDPVAIERARVALSGYVDTMLAHKVTAVRMVATSATRDASNKDDFFAMTADLLGAVVPGACAEVISGAEEAELSFIGAVADIPDTDRPVCVIDLGGGSTEFVVGKKTGEILGAYSTQMGCVRLTERLMVSDPPTAEEIAQAREYVDTQLTVALDNVPIMQASMVVGCAGTFTTVAALALGLDSYDPQRIHGSVHTADRLREETQRLIGETSQQRAAHSVMHLGRADVIAGGSVVIEQILAMMQRLGVSDSVTISEKDILDGIVARLLEELEHHHHHH | soluble |
| MGSDKIHHHHHHMKRFLFSFLFGLVLLSGCDFEHEIIEILDMIVSEDQSTDVVAPPTSGEATITFFDVGQGDSTLIRSENYTVLVDTGRHDSDAIFTHLEKQQIDQIDLLILTHPHADHIGNADEIVRLYSPEEVWIDGNEATSKTFENVIDALLDSEAEVVEPRAGDVYERGDFLFEIVNPTKLTGDLNNDSIAFRLTYGDVRVVMTGDAEEAAEQEMVASGTDLEADIFKVAHHGSSTSNQPFFLDEIEPTVAIYSAGEDNSYGHPHREVTSLLNERGIDIFGTDIHGTVLITTDGHTYSIQTEH | not soluble |
| MKRLLLIIICTLGILSCGVPKEVTVPDKHLNYKDNIVLYNEKPYTGKVKLKKIAEKEQFEEGYISVKDGKLEGITDFKNDAAKTHFKFDVKSGKFNGEYILKHPLIGDFVMNFENGELKELKGKFPNDINQDLIFDKDGNVNGLIEQGGKQLDFQGGVAVKDTLKVKMFLDTETKQKLVTEVYEGDKLMAREENILLFTVKDFTEELLPVTGLQ | not soluble |
| SQYSAQRDLRMSPGDTVELGGYHFLFDGAKHHEGPNYTSDKGSIHVSRDGKEIATLHPEKRLYTVQSSMMTEAGIDAGFTRDLYVALGEPLENGAWAVRVHVKPFVR | not soluble |
| GHHHHHHEAIAKRLDACQDQLLELYEENSIDIHKHIMHWKCIRLESVLLHKAKQMGLSHIGLQVVPPLTVSETKGHNAIEMQMHLESLAKTQYGVEPWTLQDTSYEMWLTPPKRCFKKQGNTVEVKFDGCEDNVMEYVVWTHIYLQDNDSWVKVTSSVDAKGIYYTCGQFKTYYVNFNKEAQKYGSTNHWEVCYGSTVICSPASVSSKKKK | soluble |
| MGSDKIHHHHHHMHLGKYIKKYRDTNNLSMAEFAKESGISKAYVSILEKNRDPRNGKEIIPSIPIIKKVSDTIGISFDDLLNSLDENQIVALNETKTEKNLTSSTLQKITSTSSQLEQPRQEKVLSFANEQLEEQNKVVSMFDRKVEETENYITDYVEGLVAAGLGAYQEDNLHMEVKLRADDVPDKYDTIAKVAGNSMEPLIQDNDLLFVKVSSQVDMNDIGIFQVNGKNFVKKLKRDYDGAWYLQSLNKSYEEIYLSENDNIRTIGEVVDIYREN | not soluble |
| MGSDKIHHHHHHMVEIINPFDGGGYSLAEMTQAINILPNLYTRLGQMGLFRFEGVTQRSVIIEQAEGVLNLLPTVPLGGPATVANRDARSMRSFTVPWIPHDDSITPQDVQGVRGFGVADAADPLATVMERKLTRMRTKHAQTREFMEINALRGIVRDGSGSTLYDYFAEFGLVRQQVDFALGTAATNVQAKIREVLRLVEVELKGETMTSVTALVSPAFFDKLISHPKVESAYQYFSSTGAQPLREDVRRRFPFAGMVFEEYNATVTLATGSNETLVPAGEGIAFPLGTTDTFVTYGAPANLIETVNTMGLPMYARQLARQDGSAIDVKTEASILPVNKRPRLAVRIFSGN | not soluble |
| MGSDKIHHHHHHMSDLLEWQDLAQLPVSIFKDYVTDAQDAEKPFIWTEVFLREINRSNQEIILHIWPMTKTVILGMLDRELPHLELAKKEIISRGYEPVVRNFGGLAVVADEGILNFSLVIPDVFERKLSISDGYLIMVDFIRSIFSDFYQPIEHFEVETSYCPGKFDLSINGKKFAGLAQRRIKNGIAVSIYLSVCGDQKGRSQMISDFYKIGLGDTGSPIAYPNVDPEIMANLSDLLDCPMTVEDVIDRMLISLKQVGFNDRLLMIRPDLVAEFNRFQAKSMANKGMVSRDE | not soluble |
| MKKLLLPLVLAGVLLATLLVSQSSSSPSLRVAYVDVEKATESYYKWQDLNEKYKRDYSFYQNKLKEMEDELKKMQEEGRSQEEIQAKQKEILSKKAEYENLLKTEYQQKIQEVMKEVVSKIQEYASVMGYDLVIAKQMVLYGKPSYDITDQVIAYINQK | not soluble |
| MQQLREGAPADVFISADKKNMDKALADGTVGSSVKVATNSMVMVVPQGNPGKVTSVSDLAGKTVVLCDVQVPCGTISKKLQDANGVEIKAASLESSVSDVLGKVVSGEADAGWVYRTDAAAAGNKVEVIDIPHAQEFENSLYAAVSTHSTSPDEAQKLLDLIVSPKMAQVWKDHGFSPAQ | not soluble |
| MGSDKIHHHHHHSCNEDDGAPYPSVRLEFLTAESGADGRLQTLVTDKGERLVVAEDRTESELLPNSSSRVVSNYEVLSSVGGRKEIRIYALANTVSPVPLPAGEFRNGLKFDPVDMLSIWMGRDYLNMTLSIRAQNARHTFHFIQESVERDAVTGKLKVHLMLYHDDGGDVEAYAKRAYVSVPLRQYTSDIGESVIIYFSFHTYDGEVQTYQFEYVPSHLTINY | not soluble |
| MNRVYCTARSFRTSVKSNGWVHKWSRFKRWQEMQAAHVENVQEKQRNKNFIRLPTGLYITPERPDDLNPKKAPADMTRKDTGQLPMELLTWHTQMRYVDHSIDNIKRYRRYKKFQHMQYDQRVIPERLLFLGPDLAAAHFLVHRGAAVKFVGDDNWYKKDKWNRYSLPGRKVDNLFIEAIDASGTQIMFEGLENLENLQKLRLLRLANSEYVDDWCIGRIGGLLPNLEMLDLSGCHRISSKGLMGLKASKNLKFLRLEGLSGIRNLGKSALILEDLLPKLQILGMDYELSFRQIEAENRLLEQERVVLDGRGNAFVEDDNSRLFLVMSTSSDDKAVTDDHDNPIMTSTVRREIPKMDDAEFEEINALSGGKLRHLLVGSPSGYEWTETTERILEHEAELNLTDNVITDPKMLPRGKRPEFELPEHRSRLEDAKAQFLKEFGDFEENSDKEQLKSH | not soluble |
| SETQKTQAENPPKPATSSCRKKTKDDANFLEDVKDHIDDFINASMDDHKNCFNKTIKKMFGLSKAVADKQQSEAKGGVESYLPLQTTVSD | soluble |
